We go through two substances from article PMC3578147.

This assay concerns the target Rev-independent (RI) HIV-1 Gag-CFP (HIV-1). As to the kind of experiment: FRET or BRET.

“HIV.Rev-YFP (HIV-1 Rev fused to YFP) (from UniProt P04618 1-116) (natural protein)” had an FRET efficiency of 16.4%.
Under “YFP-HIV.NC (HIV-1 NC protein fused to YFP) (domain or fragment)” stands 7.8%.
